Measurements taken from paper PMC2695768.

Molecular target: influenza virus nucleoprotein (NP), A/Victoria/3/75, wild type (influenza A virus A/Victoria/3/75)
Test: cryo-EM structure

Question: Which stoichiometry N does the source give for “influenza virus nucleoprotein (NP), A/Victoria/3/75, wild type (natural protein)” here?
Answer: The stoichiometry N was 9.
